1 substance from PMC6093232, “PROMIS, global analysis of PROtein–metabolite interactions using size separation in Arabidopsis thaliana” (The Journal of Biological Chemistry, 2018) can be followed below.

Test [1] has as its target human recombinant GAPDH protein (human) (UniProt P04406). Briefly: nano-DSF (thermal shift, Prometheus NT.48); human GAPDH 1 μM with 500 μM dipeptide in 10 mM Tris-HCl pH 7.5, 0.5 M NaCl; thermal ramp 2 °C/min, 20–90 °C; Tm from F350/F330. (In general: DSF heats the sample and reads unfolding from a dye or from intrinsic fluorescence.)
Test [2] has as its target His6-GAPCP2 (A. thaliana) (UniProt Q5E924). Briefly: nano-DSF (thermal shift, Prometheus NT.48); plant GAPCs 0.2–0.25 mg/ml with 25 μM (GAPC1/2, GAPCP1) or 50 μM (GAPCP2) dipeptide in 1× PBS; thermal ramp 2 °C/min, 20–90 °C; Tm from F350/F330.
Test [3] has as its target His6-GAPCP1 (A. thaliana) (UniProt Q9SAJ6). Described as above.

Chain of His6-GAPCP1 (A. thaliana) (Q9SAJ6 70-422): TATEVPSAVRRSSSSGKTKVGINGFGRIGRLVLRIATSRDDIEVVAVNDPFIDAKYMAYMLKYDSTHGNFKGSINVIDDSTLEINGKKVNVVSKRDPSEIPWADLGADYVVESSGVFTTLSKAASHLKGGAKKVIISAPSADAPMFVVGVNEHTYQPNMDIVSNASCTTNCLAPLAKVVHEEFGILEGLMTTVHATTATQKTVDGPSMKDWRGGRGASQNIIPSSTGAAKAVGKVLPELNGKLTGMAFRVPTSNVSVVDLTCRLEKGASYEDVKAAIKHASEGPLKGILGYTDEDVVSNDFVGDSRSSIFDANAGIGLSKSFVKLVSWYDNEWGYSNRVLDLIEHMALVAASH
Chain of His6-GAPCP2 (A. thaliana) (Q5E924 67-420): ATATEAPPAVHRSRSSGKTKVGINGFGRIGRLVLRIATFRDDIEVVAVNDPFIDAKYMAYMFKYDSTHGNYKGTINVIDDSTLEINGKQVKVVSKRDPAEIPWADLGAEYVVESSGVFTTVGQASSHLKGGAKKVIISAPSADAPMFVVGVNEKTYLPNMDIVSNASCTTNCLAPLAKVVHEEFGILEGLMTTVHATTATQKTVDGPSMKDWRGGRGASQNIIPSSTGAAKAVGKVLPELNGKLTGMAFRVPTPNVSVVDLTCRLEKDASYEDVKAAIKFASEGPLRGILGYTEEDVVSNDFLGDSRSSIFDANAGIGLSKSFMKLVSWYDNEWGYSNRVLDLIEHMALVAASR
Chain of human recombinant GAPDH protein (human) (P04406 whole entry): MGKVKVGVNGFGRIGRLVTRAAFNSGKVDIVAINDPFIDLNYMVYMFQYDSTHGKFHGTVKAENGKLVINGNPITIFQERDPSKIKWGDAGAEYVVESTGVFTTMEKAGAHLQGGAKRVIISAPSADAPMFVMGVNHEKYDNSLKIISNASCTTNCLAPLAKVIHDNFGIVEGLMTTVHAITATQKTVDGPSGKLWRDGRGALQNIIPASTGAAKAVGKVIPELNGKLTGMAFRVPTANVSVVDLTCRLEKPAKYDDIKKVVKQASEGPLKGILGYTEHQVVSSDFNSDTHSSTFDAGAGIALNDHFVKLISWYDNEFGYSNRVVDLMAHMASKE

For the substance dipeptide Tyr–Asp, the increase of Tm with 500 μM Tyr–Asp in test [1] turned out to be 1.1 °C. Also, in test [2], the decrease of Tm with 50 μM Tyr–Asp worked out at 1.5 °C. Further, the decrease of Tm with 25 μM Tyr–Asp in test [3] is 2 °C.
